Assay results: patent publication US20210189005A1 (RALLYBIO IPA, published 2021)
Read-outs that look alike come from different tables or passages of the source.

Experiments:
[1] = target: T1, integrin αVβ3 (vitronectin receptor) purified from human placenta (human, UniProt P06756 31-1048; P05106 27-788); assay: SPR, 120 s dissociation, average of three concentrations
T1 construct: mature; Amine-coupled to a CM5 chip at 480 RU for SPR; also called purified αVβ3; Millipore CC1018
Experimental: (§1) MAb samples were used in three different concentrations (20 μg/ml, 10 μg/ml and 5 μg/ml); the highest concentration is shown. Results are representative of the two independent experiments. […] Data presented are average RU generated by injection of three different concentrations of mAbs (20 μg/ml, 10 μg/ml and 5 g/ml). […] The percentage of antibody bound at the end of the dissociation phase was calculated by dividing the RU at the end of dissociation period by the RU at the end of association period multiplied by 100%. Data presented are average percentage calculated from three different concentrations for each mAb.
(§2) SPR technology was used to assess the binding properties of the mAbs (Biacore T200 instrument, Biacore AB, Uppsala, Sweden). […] The integrin αVβ3 was obtained from Millipore (cat. No: CC1018). The integrin αVβ3 was purified from human placenta by affinity chromatography using immobilized monoclonal antibodies to αVβ3 integrin. […] The purified βllbβ3 integrins (HPA-1a and HPA-1b antigen carrying versions) and αVβ3 were immobilized to the surface of a CM5 sensor chip on three different flow cells (FCs) at a density of 400, 340 and 480 response units (RU) respectively using standard amine coupling chemistry.

[2] = target: T2, purified integrin αIIbβ3 from HPA-1aa platelets (HPA-1a antigen carrying version) (human, UniProt P08514 32-1039; P05106 27-788); assay: as above
T2 construct: mature; Amine-coupled to a CM5 chip at 400 RU for SPR; also called αIIbβ3 (HPA-1a); αIIbβ3 from HPA-1aa individuals
T2 sequence (P08514 32-1039, form in doubt, chain 1 of 2): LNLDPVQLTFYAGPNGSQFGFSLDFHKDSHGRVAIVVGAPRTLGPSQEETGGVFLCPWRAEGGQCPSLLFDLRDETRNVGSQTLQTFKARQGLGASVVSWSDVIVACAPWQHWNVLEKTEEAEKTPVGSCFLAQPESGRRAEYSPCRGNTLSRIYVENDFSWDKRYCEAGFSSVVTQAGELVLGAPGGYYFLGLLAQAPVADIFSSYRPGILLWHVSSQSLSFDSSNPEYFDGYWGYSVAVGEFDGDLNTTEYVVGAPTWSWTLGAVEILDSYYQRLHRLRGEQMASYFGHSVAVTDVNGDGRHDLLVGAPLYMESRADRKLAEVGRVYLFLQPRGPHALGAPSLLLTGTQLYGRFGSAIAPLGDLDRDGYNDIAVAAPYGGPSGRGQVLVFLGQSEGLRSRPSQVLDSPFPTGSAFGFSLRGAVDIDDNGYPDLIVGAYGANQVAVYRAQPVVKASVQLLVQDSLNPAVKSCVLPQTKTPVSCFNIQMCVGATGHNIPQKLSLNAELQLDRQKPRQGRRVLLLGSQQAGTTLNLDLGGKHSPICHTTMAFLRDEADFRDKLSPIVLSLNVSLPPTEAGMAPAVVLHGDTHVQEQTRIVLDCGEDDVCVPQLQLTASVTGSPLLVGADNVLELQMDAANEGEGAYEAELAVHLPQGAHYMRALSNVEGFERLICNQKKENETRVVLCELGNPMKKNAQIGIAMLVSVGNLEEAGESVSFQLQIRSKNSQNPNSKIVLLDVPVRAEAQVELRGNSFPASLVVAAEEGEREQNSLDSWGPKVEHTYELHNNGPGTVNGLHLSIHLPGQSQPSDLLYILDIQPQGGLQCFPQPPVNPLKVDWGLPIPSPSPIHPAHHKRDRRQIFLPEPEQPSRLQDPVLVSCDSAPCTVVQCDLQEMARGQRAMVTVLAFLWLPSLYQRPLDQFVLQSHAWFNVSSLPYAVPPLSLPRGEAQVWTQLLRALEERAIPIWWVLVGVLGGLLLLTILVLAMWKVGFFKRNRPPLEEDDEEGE
T2 sequence (P05106 27-788, form in doubt, chain 2 of 2): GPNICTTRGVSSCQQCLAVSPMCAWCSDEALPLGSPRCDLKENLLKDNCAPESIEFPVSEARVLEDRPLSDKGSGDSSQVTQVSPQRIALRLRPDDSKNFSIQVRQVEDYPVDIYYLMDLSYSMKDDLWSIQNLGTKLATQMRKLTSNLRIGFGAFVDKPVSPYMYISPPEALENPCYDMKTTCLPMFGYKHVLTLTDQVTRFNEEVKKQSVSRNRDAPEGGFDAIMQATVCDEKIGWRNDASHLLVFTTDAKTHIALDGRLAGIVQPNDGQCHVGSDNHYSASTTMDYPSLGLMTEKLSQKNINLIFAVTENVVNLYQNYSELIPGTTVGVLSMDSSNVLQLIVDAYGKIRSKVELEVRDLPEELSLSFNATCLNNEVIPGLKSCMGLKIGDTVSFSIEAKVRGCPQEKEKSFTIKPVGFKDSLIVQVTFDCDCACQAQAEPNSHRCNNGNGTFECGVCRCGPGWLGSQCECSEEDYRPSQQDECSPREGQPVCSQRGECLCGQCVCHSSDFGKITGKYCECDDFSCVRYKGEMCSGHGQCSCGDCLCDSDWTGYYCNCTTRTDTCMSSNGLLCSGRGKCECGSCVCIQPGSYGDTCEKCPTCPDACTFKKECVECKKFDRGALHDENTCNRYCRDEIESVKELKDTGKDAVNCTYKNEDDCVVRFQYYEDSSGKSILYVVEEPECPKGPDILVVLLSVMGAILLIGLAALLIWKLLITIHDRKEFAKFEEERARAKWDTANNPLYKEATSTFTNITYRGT
Experimental: as §1, §2

[3] = target: T1, integrin αVβ3 (vitronectin receptor) …; assay: SPR (Biacore T200), integrin amine-coupled to CM5 chip, antibody injected 120 s
Experimental: (§3) The percentage of antibody bound at the end of the dissociation phase was calculated by dividing the RU at the end of dissociation period by the RU at the end of association period multiplied by 100%. Data presented are average percentage calculated from three different concentrations for each mAb.
(§4) SPR technology was used to assess the binding properties of the mAbs (Biacore T200 instrument, Biacore AB, Uppsala, Sweden). […] The purified βllbβ3 integrins (HPA-1a and HPA-1b antigen carrying versions) and αVβ3 were immobilized to the surface of a CM5 sensor chip on three different flow cells (FCs) at a density of 400, 340 and 480 response units (RU) respectively using standard amine coupling chemistry. An FC treated with the same chemicals but without protein was used as a reference surface. Purified monoclonal IgG samples (various concentrations) were injected over the chip surface at a flow rate of 30 μl/min. An association step of 120 sec was followed by a dissociation step of 120 sec. Regeneration of the sensor chip surface was accomplished using 10 mM Glycine-HCl (pH 1.5). The experiments were performed at 25° C. The collected data were analysed using BiaEvaluation 2.0.1 software. […] All chemicals for the Biacore experiment were purchased from GE Healthcare.

[4] = target: T2, purified integrin αIIbβ3 from HPA-1aa …; assay: as above
Experimental: as §3, §4

[5] = target: T3, GPVI (hDID2) negative control peptide (UniProt Q9HCN6 21-205); assay: domain-deletion peptide ELISA
T3 construct: domain: hDID2; also called peptide negative control
T3 sequence (looked up): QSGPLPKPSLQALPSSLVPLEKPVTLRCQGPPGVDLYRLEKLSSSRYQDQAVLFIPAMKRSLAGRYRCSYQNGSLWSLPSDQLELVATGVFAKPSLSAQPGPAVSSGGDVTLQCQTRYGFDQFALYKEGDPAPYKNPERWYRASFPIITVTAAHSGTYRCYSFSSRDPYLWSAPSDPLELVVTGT
Experimental: Murine and human mAbs were used at concentrations of 1 and 10 μg/ml. MAb binding was detected by HRP-conjugated goat-anti-mouse IgG or HRP-conjugated goat-anti-human IgG. Absorbance at 492 nm was read on an microplate photometer (Multiskan E X, Thermo Scientific, Waltham, Mass.).

[6] = target: T1, integrin αVβ3 (vitronectin receptor) …; assay: SPR (Biacore T200), integrin amine-coupled to CM5 chip, after 120 s dissociation
Experimental: as §1, §2

[7] = target: T2, purified integrin αIIbβ3 from HPA-1aa …; assay: as above
Experimental: as §1, §2

[8] = target: T3, GPVI (hDID2) negative control peptide; assay: domain-deletion peptide ELISA; remark: listed apart in the source
[9] = target: T4, integrin αIIbβ3 (glycoprotein IIbIIIa) bearing HPA-1a (Leu33) on intact HPA-1a-positive platelets (human, UniProt P08514 32-1039; P05106 27-788); assay: MAIPA inhibition assay on HPA-1aa platelets; blocked antibodies: polyclonal anti-HPA-1a IgG of 10 donor sera
T4 construct: whole, on cells; HPA-1ab platelets carry both allotypes; results on them are marked in the row; also called HPA-1aa platelets; HPA-1a homozygous platelets
T4 sequence (P08514 32-1039, chain 1 of 2): as the sequence (P08514 32-1039, form in doubt, chain 1 of 2) above
T4 sequence (P05106 27-788, chain 2 of 2): as the sequence (P05106 27-788, form in doubt, chain 2 of 2) above

T1 sequence (P06756 31-1048, form in doubt, chain 1 of 2): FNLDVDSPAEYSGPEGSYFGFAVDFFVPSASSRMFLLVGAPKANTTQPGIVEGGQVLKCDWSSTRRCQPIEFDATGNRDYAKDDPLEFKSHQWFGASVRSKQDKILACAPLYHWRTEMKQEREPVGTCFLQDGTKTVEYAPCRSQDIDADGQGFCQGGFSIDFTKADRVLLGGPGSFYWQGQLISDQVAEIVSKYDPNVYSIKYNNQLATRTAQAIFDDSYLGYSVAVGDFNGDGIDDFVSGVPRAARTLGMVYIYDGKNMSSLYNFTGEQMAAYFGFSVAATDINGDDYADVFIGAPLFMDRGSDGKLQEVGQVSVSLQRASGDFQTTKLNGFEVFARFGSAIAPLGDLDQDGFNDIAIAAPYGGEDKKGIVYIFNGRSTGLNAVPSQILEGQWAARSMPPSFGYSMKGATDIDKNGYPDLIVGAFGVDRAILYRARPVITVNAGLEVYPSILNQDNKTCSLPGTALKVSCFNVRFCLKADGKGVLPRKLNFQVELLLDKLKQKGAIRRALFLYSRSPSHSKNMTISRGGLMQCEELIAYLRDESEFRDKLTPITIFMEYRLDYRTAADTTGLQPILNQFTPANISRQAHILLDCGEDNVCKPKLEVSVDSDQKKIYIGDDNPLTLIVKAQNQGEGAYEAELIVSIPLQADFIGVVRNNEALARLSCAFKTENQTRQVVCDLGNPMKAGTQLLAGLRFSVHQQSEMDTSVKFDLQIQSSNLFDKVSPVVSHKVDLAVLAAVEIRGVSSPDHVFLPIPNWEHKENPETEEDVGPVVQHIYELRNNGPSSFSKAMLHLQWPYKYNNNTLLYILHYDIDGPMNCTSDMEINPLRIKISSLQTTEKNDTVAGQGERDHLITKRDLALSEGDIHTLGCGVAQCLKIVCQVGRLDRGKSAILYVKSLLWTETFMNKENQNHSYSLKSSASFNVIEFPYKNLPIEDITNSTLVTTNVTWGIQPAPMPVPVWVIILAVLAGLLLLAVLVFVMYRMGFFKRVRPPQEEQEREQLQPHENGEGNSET
T1 sequence (P05106 27-788, form in doubt, chain 2 of 2): as the sequence (P05106 27-788, form in doubt, chain 2 of 2) above

Binder	% remaining bound at the end of the dissociation period [1] [%]	% remaining bound at the end of the dissociation period [2] [%]	bound (RU) [3] [RU]	bound (RU) [4] [RU]	binding result [5]	% dissociated [6] [%]	bound after dissociation (RU) [6] [RU]	% dissociated [7] [%]	bound after dissociation (RU) [7] [RU]	binding result [8]	IC50 (read off the curve) [9] [µg/50 µl]
recombinant monoclonal antibody 26.4 IgG1 (antibody, also called 26.4G1) heavy: not shown light: EIVLTQSPATLSLSPGERATLSCRASQSVSSYLAWYQQKPGQAPRLLIYDASKRATGIPARFSGSGSGTDFSLTIRSLEPEDFAVYYCQQRSDWQGLTFGGGTKVEIKRTVAAPSVFIFPPSDEQLKSGTASVVCLLNNFYPREAKVQWKVDNALQSGNSQESVTEQDSKDSTYSLSSTLTLSKADYEKHKVYACEVTHQGLSSPVTKSFNRGEC	66.8	~81	18.8	63.1	no binding (tested: 10 µg/ml)	35.1	12.2	21.4	49.6		
mouse monoclonal antibody SZ21 (antibody, V domains shown, Bought murine mAb; variable regions as in Genebank AF354053 and AF354054 (the printed entries look truncated at both ends); also called clone SZ21; anti-β3 mAb (clone SZ21)) VH: LQESGPELVNPGASMKISCKASGYSFTGYTMNWVKQSHGKNLEWIGLINPYHGGSSYNQKFKGKATLTVDKSSSTAYMELLSLTSEDSAVYFCARRDANYVFFFDYWGQGTTVT VL: ELTQSPALMSASPGEKVTMTCSASSGVSYIHWYQQKSGTSPKRWIYDTSKLASGVPARFSGSGSGTSYSLTISSMEAEDAATYYCQQWSSKPPTFGGGTKLE										no binding (tested: 10 µg/ml)	
human HPA-1a-specific recombinant monoclonal antibody B2G1 (antibody, V domains shown, Generated by phage display and produced recombinantly as a human IgG detected by anti-human IgG; also called clone B2G1) VH: QVQLVQSGAEVKRPGAAVKVSCKASGYRFTGHYMHWVRQAPGQGLEWMGWINPNSGGTSYAQKFQGRVTMTRDTSISTAYMEMTRLRYDDTAVYYCAAGGLGGYYYYAMNIWGQGTTVTVSS VL: QSALTQPASVSGSPGQSITISCTGTSSDVGGYNYVSWYQQHPGKAPKLMIYEVSNRPSGVSNRFSGSKSGNTASLTISGLQAEDEADYYCSSYTSSSTWVFGGGTKLTVL	31.4	~81	11.2	56.1	no binding (tested: 10 µg/ml)	70.5	3.3	22	43.8		
mAb 26.4 F(ab')2 fragment (other) VH: QVQLQQSGPGLVKPSQTLSLTCAISGDSVSSNSAAWNWIRQSPSRGLEWLGRTYFRSNWYNDYAASVKSRITINQDTSKNQLSLQLNSVTPEDTAMYYCARDGAWGGSSWWPGLPHHYYSGMDVWGQGTTVTVSS VL: EIVLTQSPATLSLSPGERATLSCRASQSVSSYLAWYQQKPGQAPRLLIYDASKRATGIPARFSGSGSGTDFSLTIRSLEPEDFAVYYCQQRSDWQGLTFGGGTKVEIK											~5
